{"source": "patent US20130079286A1", "about": "(Pieris, published 2013)", "binders": {"B1": {"name": "Lcn2 mutein S1-A4 (designed binder)", "chain": "QDSTSDLIPAPPLSKVPLQQNFQDNQFHGKWYVVGVAGNYTLREDKDPLKMYATIYELKEDKSYNVTSVGFRLKKCNYKIRTFVPGSQPGEFTLGIIKSQPGMTSYLVRVVSTNYNQHAMVFFKTVGQNREMFNITLYGRTKELTSELKENFIRFSKSLGLPENHIVFPVPIDQCIDG"}}, "key": {"MBP-Aβ40 fusion protein [1]": {"molecular_target": "T1, MBP-Aβ40 fusion protein", "T1 construct": "the entry may be a nucleic acid; Biotin-labelled in the capture ELISA, unlabeled in the direct ELISA and SPR; also called MBP-Abeta40", "assay": "SPR (Biacore), MBP-Aβ40 amine-coupled (1455 RU), mutein as analyte", "method": "(§1) FIG. 8 depicts the kinetic real time analysis of Lcn2 muteins S1-A4 (A) and US7 (B) measured on a Biacore instrument at a flow rate of 10 μl/min. The MBP-Aβ40 fusion protein was coupled via amine chemistry on a CMD 200I chip (ΔRU=1455) and each of the purified Lcn2 muteins was applied in a series at different concentrations. The measured signal is shown as a grey line whereas the curve fit is depicted as a black line in each case.\n(§2) Real time analysis of Lcn2 muteins was performed on a Biacore X system (Biacore, Uppsala, Sweden) using PBS/T (PBS containing 0.005% (v/v) Tween 20) as running buffer. A 50 μg/mL solution of MBP-Aβ40 from Example 2 in 10 mM Na-acetate, pH 4.5 was immobilized onto a […] chip (Xantec, Düsseldorf, Germany) using standard amine coupling chemistry, resulting in a ligand density of 1455 resonance units (RU). […] The sensorgrams were corrected by subtraction of the corresponding signals measured for the control channel, which had been activated and blocked with ethanolamine. […] During this step the kₒₙ and koff rates were fitted globally, while the maximum response difference Rₘₐₓ was fitted locally for each curve."}, "[2]": {"molecular_target": "T2, Aβ40 hexamer FFAEDV on SPOT membrane", "T2 construct": "Called a minimal motif found with the hexameric and decameric peptides", "T2 peptide": "Ac-FFAEDV-{SPOT membrane}", "assay": "SPOT membrane, hexameric and decameric peptides", "method": "(§3) The SPOT membrane (Amino-PEG500-UC540 sheet, 100×150 mm, Intavis, Köln, Germany) for mapping the Aβ epitope of the Lcn2 muteins S1-A4 and US7 was prepared in an automated procedure as described by Frank ((2002) J. Immunol. Methods 262, 13-26) using a MultiPep RS instrument (Intavis, Köln, Germany) and activated amino acids from the same vendor. The Aβ40 amino acid sequence (SEQ ID NO: 29) was synthesized on the membrane in successive hexamers, decamers, and pentadecamers, each with a dislocation of 1 amino acid, thus covering the entire sequence. The C-termini of these peptides became covalently attached to the membrane whereas their N-termini were acetylated. Immobilized Strep-tag II served as a positive control for the detection method.\n(§4) Prior to use, the membrane was washed once with ethanol, 3 times with PBS (4 mM KH₂PO₄, 16 mM Na₂HPO₄, 115 mM NaCl, pH 7.4), and blocked with 3% (w/v) BSA in PBS/T (PBS containing 0.1% (v/v) Tween 20) for 1 h. […]\n(§5) Comparison of the membranes incubated with S1-A4 and wild-type Lcn2, respectively, yielded prominent spots that only occurred upon incubation of the membrane with S1-A4 and not with wild-type Lcn2. […] With the shorter hexameric and decameric peptide sequences binding of S1-A4 to the minimal motives VFFAED and FFAEDV was detected."}, "[3]": {"molecular_target": "T3, Aβ40 hexamer VFFAED on SPOT membrane", "T3 construct": "Called a minimal motif found with the hexameric and decameric peptides", "T3 peptide": "Ac-VFFAED-{SPOT membrane}", "assay": "SPOT membrane, hexameric and decameric peptides", "method": "as §3, §4, §5"}, "MBP-Aβ40 fusion protein [4]": {"molecular_target": "T1, MBP-Aβ40 fusion protein", "assay": "SPR (Biacore), MBP-Aβ40 amine-coupled; same experiment as the 1st table, row 20, column 2, printed with more digits", "method": "as §1, §2"}, "Trx-Aβ28 fusion protein": {"molecular_target": "T4, Trx-Aβ28 fusion protein (Escherichia coli (strain K12), UniProt P0AA25 1-76 = thioredoxin, Biotin-labelled through an NHS ester (2:1) in the capture and competitive ELISAs; unlabeled in the direct ELISA and as competitor.)", "T4 construct": "the entry may be a nucleic acid; also called TrxAbeta28H6", "assay": "competitive ELISA: mutein captured, 5 nM biotinylated Trx-Aβ28 as tracer, unlabeled Trx-Aβ28 varied as competitor"}}}
{"binder": "B1", "values": [{"measurement": "koff", "setting": "MBP-Aβ40 fusion protein [1]", "value": "8.36e-05", "unit": "s⁻¹"}, {"measurement": "kon", "setting": "MBP-Aβ40 fusion protein [1]", "value": 48000, "unit": "M⁻¹ s⁻¹"}, {"measurement": "binding result", "setting": "[2]", "value": "binds"}, {"measurement": "binding result", "setting": "[3]", "value": "binds"}, {"measurement": "Kd", "setting": "MBP-Aβ40 fusion protein [4]", "value": 1.74, "unit": "nM"}, {"measurement": "Kd", "setting": "Trx-Aβ28 fusion protein", "value": 21.7, "unit": "nM"}]}
